Assay results as given in patent US20100255020A1, “METHOD FOR INDUCING CYTOTOXIC T-CELLS, CYTOTOXIC T-CELL INDUCERS, AND PHARMACEUTICAL COMPOSITIONS AND VACCINES EMPLOYING THEM” (NEC CORPORATION, priority 2007, published 2010).

How the values were obtained:
[1] = target: HLA-A*0201 molecule (human); assay: flow cytometry, acid-stripped JY cells reconstituted with beta2m and peptide dilutions, stained with mAb BB7.2
[2] = target: HLA-A*0206 molecule (human); assay: flow cytometry, RA2.6 (RMAS-HLA-A*0206) stabilisation assay with peptide dilutions, stained with mAb BB7.2
[3] = target: HLA-A*2402 molecule (human); assay: flow cytometry, acid-stripped C1R-A24 cells reconstituted with beta2m and peptide dilutions, stained with mAb 17A12

-log Kd [1] | -log Kd [2] | -log Kd [3] | Binder
6.41 -log Kd | 6.61 -log Kd | 7.67 -log Kd | RVPGVAPTL (modifications not checked) [W302 peptide]
7.84 -log Kd | 7.74 -log Kd | 9.16 -log Kd | ALLPAVPSL (modifications not checked) [W10 peptide]
